In the supplement of paper PMC10065799, “High-throughput profiling of sequence recognition by tyrosine kinases and SH2 domains using bacterial peptide display” (eLife, 2023):

Assays:
[1] = target: c-Src SH2; assay: SH2 binding enrichment of the phosphorylated peptide, bacterial display (enrichment ratio); higher = better substrate or ligand; peptides without Tyr show the background
[2] = target: SHP2-C SH2; assay: as above
[3] = target: Grb2 SH2 (UniProt P62993); assay: as above
[4] = target: Fyn (UniProt P06241); assay: phosphorylation enrichment, bacterial display (enrichment ratio); higher = better substrate or ligand; peptides without Tyr show the background
Fyn, sequence (P06241 whole entry, looked up): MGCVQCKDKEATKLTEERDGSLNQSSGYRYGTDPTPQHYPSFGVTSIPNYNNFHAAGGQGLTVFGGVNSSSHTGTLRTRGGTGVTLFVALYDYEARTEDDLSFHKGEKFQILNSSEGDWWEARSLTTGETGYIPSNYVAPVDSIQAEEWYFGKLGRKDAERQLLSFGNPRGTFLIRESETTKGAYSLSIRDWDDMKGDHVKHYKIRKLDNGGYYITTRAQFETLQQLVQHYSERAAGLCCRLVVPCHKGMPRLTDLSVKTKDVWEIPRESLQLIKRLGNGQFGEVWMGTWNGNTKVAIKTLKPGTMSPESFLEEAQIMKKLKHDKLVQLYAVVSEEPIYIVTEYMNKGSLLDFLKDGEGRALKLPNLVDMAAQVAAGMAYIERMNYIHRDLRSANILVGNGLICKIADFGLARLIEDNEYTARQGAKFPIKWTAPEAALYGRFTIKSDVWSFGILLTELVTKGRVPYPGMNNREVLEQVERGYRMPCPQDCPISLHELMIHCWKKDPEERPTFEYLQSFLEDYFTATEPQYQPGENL

[5] = system: c-Src; assay: as above
[6] = target: MERTK (UniProt Q12866); assay: as above
MERTK, sequence (Q12866 whole entry, looked up): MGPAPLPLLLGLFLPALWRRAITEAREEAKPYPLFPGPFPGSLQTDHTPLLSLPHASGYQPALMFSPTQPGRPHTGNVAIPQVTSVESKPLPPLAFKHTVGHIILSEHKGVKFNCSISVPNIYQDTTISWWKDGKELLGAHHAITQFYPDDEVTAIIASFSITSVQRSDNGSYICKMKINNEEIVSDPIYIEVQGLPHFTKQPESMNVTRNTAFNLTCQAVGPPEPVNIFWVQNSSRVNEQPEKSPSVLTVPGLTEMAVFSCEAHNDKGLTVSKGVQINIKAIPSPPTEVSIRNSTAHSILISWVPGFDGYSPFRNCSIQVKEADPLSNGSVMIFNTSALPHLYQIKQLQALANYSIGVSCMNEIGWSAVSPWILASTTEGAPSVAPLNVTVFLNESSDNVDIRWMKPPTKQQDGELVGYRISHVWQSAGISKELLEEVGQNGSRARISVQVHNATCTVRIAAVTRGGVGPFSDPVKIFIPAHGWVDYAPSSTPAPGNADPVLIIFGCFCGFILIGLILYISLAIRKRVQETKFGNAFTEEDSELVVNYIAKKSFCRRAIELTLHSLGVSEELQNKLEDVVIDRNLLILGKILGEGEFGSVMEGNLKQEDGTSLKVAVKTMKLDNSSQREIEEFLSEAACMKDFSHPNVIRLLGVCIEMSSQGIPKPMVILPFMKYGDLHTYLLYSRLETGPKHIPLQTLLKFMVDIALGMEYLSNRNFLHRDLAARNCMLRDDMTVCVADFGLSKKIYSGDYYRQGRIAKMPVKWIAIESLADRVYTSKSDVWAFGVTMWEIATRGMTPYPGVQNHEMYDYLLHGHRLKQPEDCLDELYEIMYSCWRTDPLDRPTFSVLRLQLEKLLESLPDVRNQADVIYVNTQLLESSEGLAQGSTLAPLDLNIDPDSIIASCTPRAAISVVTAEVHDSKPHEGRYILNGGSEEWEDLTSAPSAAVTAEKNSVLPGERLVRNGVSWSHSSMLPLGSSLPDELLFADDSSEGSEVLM

[7] = target: Fes (UniProt P07332); assay: as above
[8] = target: Jak2 (UniProt O60674); assay: as above
[9] = system: c-Abl (mouse); assay: as above
[10] = target: EPHB2 (UniProt P29323); assay: as above
EPHB2, sequence (P29323 whole entry, looked up): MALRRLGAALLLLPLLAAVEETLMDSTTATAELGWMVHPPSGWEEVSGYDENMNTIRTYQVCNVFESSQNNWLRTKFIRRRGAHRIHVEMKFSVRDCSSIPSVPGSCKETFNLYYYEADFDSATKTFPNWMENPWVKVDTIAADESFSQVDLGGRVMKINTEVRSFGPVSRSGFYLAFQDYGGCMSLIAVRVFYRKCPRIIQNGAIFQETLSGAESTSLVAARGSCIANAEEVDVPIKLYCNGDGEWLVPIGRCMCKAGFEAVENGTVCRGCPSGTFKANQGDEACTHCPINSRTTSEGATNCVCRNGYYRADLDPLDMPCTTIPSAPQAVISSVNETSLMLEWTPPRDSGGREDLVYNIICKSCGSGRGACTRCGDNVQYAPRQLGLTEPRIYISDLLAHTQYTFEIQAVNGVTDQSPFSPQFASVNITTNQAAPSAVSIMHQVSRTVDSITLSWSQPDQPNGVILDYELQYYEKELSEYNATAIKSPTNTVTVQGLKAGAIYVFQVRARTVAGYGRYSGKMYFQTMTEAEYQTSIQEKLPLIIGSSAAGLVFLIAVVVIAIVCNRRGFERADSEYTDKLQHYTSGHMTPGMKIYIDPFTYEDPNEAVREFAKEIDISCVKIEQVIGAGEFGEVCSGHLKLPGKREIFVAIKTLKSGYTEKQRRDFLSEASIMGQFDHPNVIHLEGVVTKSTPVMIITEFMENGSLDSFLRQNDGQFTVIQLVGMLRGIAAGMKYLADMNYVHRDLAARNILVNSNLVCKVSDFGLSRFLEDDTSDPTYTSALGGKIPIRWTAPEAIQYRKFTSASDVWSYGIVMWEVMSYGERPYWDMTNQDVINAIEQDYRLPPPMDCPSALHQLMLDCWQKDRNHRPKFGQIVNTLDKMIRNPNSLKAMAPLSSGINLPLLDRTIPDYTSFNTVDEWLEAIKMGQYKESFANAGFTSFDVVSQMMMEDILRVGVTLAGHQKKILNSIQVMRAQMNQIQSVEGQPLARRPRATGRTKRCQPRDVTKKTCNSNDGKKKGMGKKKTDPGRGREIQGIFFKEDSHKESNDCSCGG

[11] = target: FGFR3 (UniProt P22607); assay: as above
FGFR3, sequence (P22607 whole entry, looked up): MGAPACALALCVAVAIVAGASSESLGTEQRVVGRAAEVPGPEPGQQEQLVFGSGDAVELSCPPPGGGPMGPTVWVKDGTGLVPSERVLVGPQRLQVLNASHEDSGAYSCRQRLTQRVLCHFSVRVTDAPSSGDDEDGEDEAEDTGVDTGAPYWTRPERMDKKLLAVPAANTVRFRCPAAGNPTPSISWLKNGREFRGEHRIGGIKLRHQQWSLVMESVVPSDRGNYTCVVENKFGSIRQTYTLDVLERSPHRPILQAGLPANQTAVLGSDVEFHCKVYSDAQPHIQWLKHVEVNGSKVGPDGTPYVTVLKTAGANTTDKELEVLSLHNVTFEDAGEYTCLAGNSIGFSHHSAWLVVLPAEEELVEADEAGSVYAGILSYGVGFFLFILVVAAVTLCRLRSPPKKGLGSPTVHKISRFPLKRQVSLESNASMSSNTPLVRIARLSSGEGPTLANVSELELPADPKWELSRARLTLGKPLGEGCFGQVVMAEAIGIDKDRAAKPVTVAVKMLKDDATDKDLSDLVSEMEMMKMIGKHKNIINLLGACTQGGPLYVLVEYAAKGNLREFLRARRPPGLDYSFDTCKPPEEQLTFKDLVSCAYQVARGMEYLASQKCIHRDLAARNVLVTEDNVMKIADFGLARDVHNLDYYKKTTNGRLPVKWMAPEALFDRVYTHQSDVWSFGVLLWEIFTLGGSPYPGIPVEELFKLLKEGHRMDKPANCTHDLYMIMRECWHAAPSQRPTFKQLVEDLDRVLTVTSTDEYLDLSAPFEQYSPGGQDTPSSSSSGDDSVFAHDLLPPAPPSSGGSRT

[12] = target: FGFR1 (UniProt P11362); assay: as above
FGFR1, sequence (P11362 whole entry, looked up): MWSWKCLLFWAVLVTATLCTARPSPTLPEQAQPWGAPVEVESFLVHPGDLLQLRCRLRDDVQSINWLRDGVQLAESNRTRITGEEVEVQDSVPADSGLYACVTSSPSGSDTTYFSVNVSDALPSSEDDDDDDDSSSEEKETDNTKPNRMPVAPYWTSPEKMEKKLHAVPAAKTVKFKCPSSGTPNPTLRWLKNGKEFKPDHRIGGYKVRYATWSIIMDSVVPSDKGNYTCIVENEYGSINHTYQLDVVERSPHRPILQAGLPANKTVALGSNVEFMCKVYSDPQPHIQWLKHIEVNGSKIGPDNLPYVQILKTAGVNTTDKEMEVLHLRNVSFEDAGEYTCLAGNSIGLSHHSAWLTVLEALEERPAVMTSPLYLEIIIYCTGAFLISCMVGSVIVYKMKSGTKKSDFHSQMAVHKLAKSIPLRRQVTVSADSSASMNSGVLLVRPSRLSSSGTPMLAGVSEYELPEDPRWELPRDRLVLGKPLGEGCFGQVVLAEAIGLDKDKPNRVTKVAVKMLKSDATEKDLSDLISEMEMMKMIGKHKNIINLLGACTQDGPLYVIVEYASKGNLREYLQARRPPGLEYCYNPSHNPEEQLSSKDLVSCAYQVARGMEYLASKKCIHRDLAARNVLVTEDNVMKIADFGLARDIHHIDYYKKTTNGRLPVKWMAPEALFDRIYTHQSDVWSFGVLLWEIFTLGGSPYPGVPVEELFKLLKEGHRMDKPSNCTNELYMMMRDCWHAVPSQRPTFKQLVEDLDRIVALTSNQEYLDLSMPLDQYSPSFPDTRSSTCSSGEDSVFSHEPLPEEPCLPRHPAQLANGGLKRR

[13] = target: Hck (UniProt P08631); assay: as above
Hck, sequence (P08631 whole entry, looked up): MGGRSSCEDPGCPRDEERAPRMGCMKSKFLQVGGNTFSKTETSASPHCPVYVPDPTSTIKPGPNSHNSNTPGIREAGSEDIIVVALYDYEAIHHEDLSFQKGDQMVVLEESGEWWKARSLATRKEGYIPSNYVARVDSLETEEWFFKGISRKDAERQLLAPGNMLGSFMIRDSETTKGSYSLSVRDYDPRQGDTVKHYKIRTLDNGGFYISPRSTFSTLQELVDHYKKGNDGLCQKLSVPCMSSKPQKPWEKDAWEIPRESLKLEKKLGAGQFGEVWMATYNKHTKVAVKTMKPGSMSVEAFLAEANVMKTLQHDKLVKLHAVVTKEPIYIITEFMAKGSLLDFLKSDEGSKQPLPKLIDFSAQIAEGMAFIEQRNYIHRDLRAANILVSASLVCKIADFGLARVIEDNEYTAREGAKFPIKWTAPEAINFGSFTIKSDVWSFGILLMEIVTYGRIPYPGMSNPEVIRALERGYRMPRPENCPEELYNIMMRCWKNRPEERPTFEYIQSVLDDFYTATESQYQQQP

[14] = system: Fer (mouse); assay: as above
[15] = system: AncSZ; assay: as above
[16] = target: EPHB1 (UniProt P54762); assay: as above
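Throughout, for SH2 binding enrichment of the phosphorylated peptide, bacterial display: peptide library displayed on the E. coli surface as eCPX fusions, selected cells deep-sequenced, score is each peptide's frequency after selection divided by its frequency in the input.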
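Throughout, for phosphorylation enrichment, bacterial display: 11-residue human phosphosite peptides and single-mutation variants displayed on the E. coli surface, counted by deep sequencing, each peptide's frequency after selection divided by its frequency in the unselected input library; frequency after pTyr selection over input frequency; kinase dosed for 20-30% of maximal phosphorylation in three min.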

SH2 binding enrichment [1]	SH2 binding enrichment [2]	SH2 binding enrichment [3]	Sequence	phosphorylation enrichment [4]	phosphorylation enrichment [5]	phosphorylation enrichment [6]	phosphorylation enrichment [7]	phosphorylation enrichment [8]	phosphorylation enrichment [9]	phosphorylation enrichment [10]	phosphorylation enrichment [11]	phosphorylation enrichment [12]	phosphorylation enrichment [13]	phosphorylation enrichment [14]	phosphorylation enrichment [15]	phosphorylation enrichment [16]
0.916	0.665	0.858	KTGDYYDLYGG [PTPN11_Y63_N58K]	4.48	3.86	3.04	1.09	2.26	0.813	7.72	13.8	16.8	5.07	0.829	1.86	9.65
3.98	5.95	1.17	YFVVEYRDQKP [MUC17_Y4332]	0.786	0.728	4.97	1.66	3.02	0.788	0.909	12.1	13.8	0.589	0.75	2.1	1.23
0.478	0.61	0.717	PLDGEYFTLPI [TP53_Y327_Q331P]	9.28	9.02	3.81	2.87	12.1	25	19.1	32.2	36.5	15.7	1.66	12.6	16.6
0.516	0.695	0.893	IATTIYSGDKI [UGGT2_Y823_A821T]	0.591	0.748	0.507	0.752	0.701	0.778	0.557	0.493	0.57	0.791	0.41	0.638	0.576
0.614	0.778	1.11	NTGLEYIKFTW [HRH1_Y386_D385E]	0.531	0.495	0.474	1.09	1.37	0.657	0.633	0.851	0.76	0.58	0.449	1.16	0.572
0.819	0.65	1.11	RGDSAYHSQRH [ERBB3_Y1132]	0.455	0.462	0.357	0.731	0.288	0.453	0.469	0.427	0.401	0.305	0.569	0.51	0.534
0.651	1.26	1.15	TVEDHDYEGGI [TKT_Y563_Y563D]	0.478	0.526	0.49	1.17	0.963	0.654	0.583	0.727	0.481	0.5	0.559	1.08	0.543
1.39	0.902	5.27	MGHVNYGAYIN [GLB1_Y485_R482H]	0.521	0.589	0.358	0.661	0.672	0.571	0.796	0.444	0.384	0.471	0.395	0.602	0.535
